Experimental data published in article PMC11250742, “Preclinical evaluation of CXCR4 peptides for targeted radionuclide therapy in glioblastoma” (EJNMMI Radiopharmacy and Chemistry, 2024).
Read-outs that look alike come from different tables or passages of the source. Where a SMILES comes first, the peptide text is derived from it. Bridges are numbered along the chain shown (N, C = ends). [ ]: non-standard residue; d: D form. The star is where a group is joined. DOTA = O=C(O)CN1CCN(CC(=O)O)CCN(CC(=O)*)CCN(CC(=O)O)CC1; 2Nal = N[C@@H](Cc1ccc2ccccc2c1)C(=O)O; Cit = NC(=O)NCCC[C@H](N)C(=O)O

Assay: Ex vivo biodistribution in U87-CXCR4 + tumour-bearing mice
Parameters: species or system BALB/c nude mice
Details: mouse; for tissue to tissue ratio at 24 h / tissue uptake dose at 1 h / tissue uptake dose at 4 h / tissue uptake dose at 24 h / tissue uptake dose at 168 h / SUV at 1 h / SUV at 4 h / SUV at 24 h / SUV at 168 h: female, BALB/c nude, iv, 1.5 MBq, total radioactivity; for tissue uptake dose at 1 h / tissue uptake dose at 4 h / tissue uptake dose at 24 h / tissue uptake dose at 168 h: %IA
Procedure: For the generation of the subcutaneous GBM xenograft model, BALB/c nude mice (between 8 and 12 weeks old) were anesthetised with 2.5% isoflurane in O2 at a flow rate of 0.2 L/min and subcutaneously injected on the right shoulder with 3 × 10^6 U87-CXCR4 + cells resuspended in a 1:1 mixture of PBS and Cultrex BME (R&D Systems, Bio-Techne, Minnesota, US). Tumours were left to grow for ten days before the start of the experiment. Tumour volumes were calculated as length × width × height. Three days before the experiment, the mean tumour volumes of all mice were 255 ± 119 mm^3.
The pharmacokinetic profile of [^177Lu]Lu-POL3026 was evaluated in female BALB/c nude mice with subcutaneous xenografts of U87-CXCR4 + tumours.
All animals were anesthetised with 2.5% isoflurane in O2 at a flow rate of 1 L/min and intravenously (IV) injected with 1.5 MBq of [^177Lu]Lu-POL3026 via a tail vein (radiolabelled with a Am of 53.1 ± 0.55 MBq/nmol). The mice were sacrificed by an overdose of pentobarbital (200 µL of 60 mg/mL) at 1-, 4-, 24- and 168 h post-injection (p.i.) (n = 3–4 per time point), followed by cardiac puncture. Organs of interest were collected in tarred tubes and weighed. The activity in the different organs was measured in the automated gamma counter described above. For the calculation of the total activity in the blood, bone, and muscle, the masses were assumed to be 7, 12 and 40% of the total body mass, respectively. Data is shown as standardised uptake value (SUV), calculated using the following equation:
SUV = [Activity in organ (cpm) / Organ weight (g)] / [(Injected activity (cpm) / Total body weight (g)].

## N=C(N)NCCC[C@@H]1NC(=O)[C@@H]2CSSC[C@H](NC(=O)[C@H](Cc3ccc4ccccc4c3)NC(=O)[C@H](CCCNC(=N)N)NC(=O)[C@H](CCCNC(=N)N)NC(=O)[C@H]3CCCN3C(=O)CNC1=O)C(=O)N[C@@H](Cc1ccc(O)cc1)C(=O)N[C@@H](CCC(N)=O)C(=O)N[C@@H](CCCCNC(=O)CN1CCN(CC(=O)O)CCN(CC(=O)O)CCN(CC(=O)O)CC1)C(=O)N1CCC[C@@H]1C(=O)N1CCC[C@H]1C(=O)N[C@@H](Cc1ccc(O)cc1)C(=O)N[C@@H](CCCNC(=N)N)C(=O)N[C@@H](CCCNC(N)=O)C(=O)N2 [[^177Lu]Lu-DOTA-POL3026, metal not drawn] (cyclo(RR[2Nal]CYQK(DOTA)[dP]PYR[Cit]CRG[dP]); disulfide 4-13)
24 h p.i., read-out: tumour-to-kidney ratio
  tissue to tissue ratio at 24 h: 0.7
Blood
  tissue uptake dose at 1 h: 15.2 %ID
  tissue uptake dose at 4 h: 3.73 %ID
  tissue uptake dose at 24 h: 0.14 %ID
  tissue uptake dose at 168 h: 0.04 %ID
  SUV at 1 h: 2.17 SUV
  SUV at 4 h: 0.53 SUV
  SUV at 24 h: 0.02 SUV
Blood on tissue paper
  tissue uptake dose at 1 h: 3.79 %ID
  tissue uptake dose at 4 h: 1.56 %ID
  tissue uptake dose at 24 h: 0.51 %ID
  tissue uptake dose at 168 h: 0.2 %ID
Bone
  tissue uptake dose at 1 h: 8.81 %ID
  tissue uptake dose at 4 h: 14.4 %ID
  tissue uptake dose at 24 h: 7.05 %ID
  tissue uptake dose at 168 h: 2.14 %ID
  SUV at 1 h: 0.73 SUV
  SUV at 4 h: 1.2 SUV
  SUV at 24 h: 0.59 SUV
  SUV at 168 h: 0.18 SUV
Brain
  tissue uptake dose at 1 h: 0.09 %ID
  tissue uptake dose at 4 h: 0.03 %ID
  tissue uptake dose at 24 h: 0.01 %ID
  SUV at 1 h: 0.05 SUV
  SUV at 4 h: 0.02 SUV
  SUV at 24 h: 0.01 SUV
Carcass
  tissue uptake dose at 1 h: 28.5 %ID
  tissue uptake dose at 4 h: 18.3 %ID
  tissue uptake dose at 24 h: 12.8 %ID
  tissue uptake dose at 168 h: 3.02 %ID
Heart
  tissue uptake dose at 1 h: 0.71 %ID
  tissue uptake dose at 4 h: 0.22 %ID
  tissue uptake dose at 24 h: 0.09 %ID
  tissue uptake dose at 168 h: 0.01 %ID
  SUV at 1 h: 1.33 SUV
  SUV at 4 h: 0.46 SUV
  SUV at 24 h: 0.17 SUV
  SUV at 168 h: 0.02 SUV
Intestines
  tissue uptake dose at 1 h: 5.63 %ID
  tissue uptake dose at 4 h: 3.76 %ID
  tissue uptake dose at 24 h: 2.14 %ID
  tissue uptake dose at 168 h: 0.59 %ID
Kidneys
  tissue uptake dose at 1 h: 4.03 %ID
  tissue uptake dose at 4 h: 4.99 %ID
  tissue uptake dose at 24 h: 3.65 %ID
  tissue uptake dose at 168 h: 0.61 %ID
  SUV at 1 h: 2.57 SUV
  SUV at 4 h: 3.34 SUV
  SUV at 24 h: 2.41 SUV
  SUV at 168 h: 0.38 SUV
Liver
  tissue uptake dose at 1 h: 31.6 %ID
  tissue uptake dose at 4 h: 39.8 %ID
  tissue uptake dose at 24 h: 39.2 %ID
  tissue uptake dose at 168 h: 14.2 %ID
  SUV at 1 h: 5.27 SUV
  SUV at 4 h: 7.32 SUV
  SUV at 24 h: 6.46 SUV
  SUV at 168 h: 2.3 SUV
Lungs
  tissue uptake dose at 1 h: 2.72 %ID
  tissue uptake dose at 4 h: 1.87 %ID
  tissue uptake dose at 24 h: 0.59 %ID
  tissue uptake dose at 168 h: 0.06 %ID
  SUV at 1 h: 4.74 SUV
  SUV at 4 h: 3.24 SUV
  SUV at 24 h: 1.02 SUV
  SUV at 168 h: 0.08 SUV
Muscle
  tissue uptake dose at 1 h: 9.87 %ID
  tissue uptake dose at 4 h: 4.89 %ID
  tissue uptake dose at 24 h: 3.78 %ID
  tissue uptake dose at 168 h: 0.57 %ID
  SUV at 1 h: 0.25 SUV
  SUV at 4 h: 0.12 SUV
  SUV at 24 h: 0.09 SUV
  SUV at 168 h: 0.01 SUV
Pancreas
  tissue uptake dose at 1 h: 0.3 %ID
  tissue uptake dose at 4 h: 0.16 %ID
  tissue uptake dose at 24 h: 0.1 %ID
  tissue uptake dose at 168 h: 0.02 %ID
  SUV at 1 h: 0.3 SUV
  SUV at 4 h: 0.19 SUV
  SUV at 24 h: 0.13 SUV
  SUV at 168 h: 0.02 SUV
Spleen
  tissue uptake dose at 1 h: 4.01 %ID
  tissue uptake dose at 4 h: 2.02 %ID
  tissue uptake dose at 24 h: 1.61 %ID
  tissue uptake dose at 168 h: 0.72 %ID
  SUV at 1 h: 8.67 SUV
  SUV at 4 h: 6.77 SUV
  SUV at 24 h: 4.83 SUV
  SUV at 168 h: 1.84 SUV
Stomach
  tissue uptake dose at 1 h: 0.35 %ID
  tissue uptake dose at 4 h: 0.31 %ID
  tissue uptake dose at 24 h: 0.17 %ID
  tissue uptake dose at 168 h: 0.03 %ID
Tail
  tissue uptake dose at 1 h: 2.05 %ID
  tissue uptake dose at 4 h: 1.75 %ID
  tissue uptake dose at 24 h: 1.7 %ID
  tissue uptake dose at 168 h: 0.53 %ID
Tumour
  tissue uptake dose at 1 h: 1.54 %ID
  tissue uptake dose at 4 h: 1.01 %ID
  tissue uptake dose at 24 h: 1.46 %ID
  tissue uptake dose at 168 h: 0.29 %ID
  SUV at 1 h: 1.39 SUV
  SUV at 4 h: 1.74 SUV
  SUV at 24 h: 1.79 SUV
  SUV at 168 h: 0.32 SUV
tumour-to-blood ratio
  tissue to tissue ratio at 24 h: 89
tumour-to-liver ratio
  tissue to tissue ratio at 24 h: 0.3
tumour-to-muscle ratio
  tissue to tissue ratio at 24 h: 19
  %IA, Brain: 0.00 %IA
  SUV, Blood: 0.00
  SUV, Brain: 0.00
  SUV, Tumour: 1.9
